Consider 1 molecule from patent US20160237160A1 (Bayer, published 2016).

For experiment [1], the target named is T1, TPP-1846 (MAC-TNFRSF12Aaa28-80-hIgG1-Fc) (macaca fascicularis).
T1 construct: bivalent antigen; also called mac fasc TWEAKR Fc
Kind of experiment: SPR, TWEAKR-Fc immobilized, IgG injected, bivalent analyte model (avidity mode).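 Note: kd derived as the ratio of fitted dissociation to association rate constants, with sensorgrams corrected against a reference flow cell and a buffer blank before fitting.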 For orientation: SPR reads the build-up and loss of mass on a sensor chip optically.
Protocol: (§1) Sensorgrams were generated after in-line reference cell correction followed by buffer sample subtraction. The dissociation equilibrium constant (KD) was calculated based on the ratio of association (kₒₙ₁) and dissociation rated (koff1) constants, obtained by fitting sensorgrams with a bivalent analyte model using Biavaluation Software (version 4.0).

Experiment [2] addresses T2, TPP-601 (MURINE-TNFRSF12Aaa28-80-hIgG1-Fc) (murine).
T2 construct: dimeric; also called murine TWEAKR Fc
The description is as above.
Protocol: as §1

For experiment [3], the target named is T3, TPP-599 (HUMAN-TNFRSF12Aaa28-80-hIgG1-Fc) (human).
T3 construct: dimeric; also called human TWEAKR Fc; TWEAKR-Fc
The description is as above.
Protocol: as §1

For experiment [4], the target named is T4, TPP-1779 (RAT-TNFRSF12Aaa28-80-hIgG1-Fc) (rat).
T4 construct: bivalent antigen; also called rat TWEAKR Fc
The experiment is described as above.
Protocol: as §1

The target of experiment [5] is T5, TPP-1778 (PIG-TNFRSF12Aaa28-80-hIgG1-Fc) (pig).
T5 construct: bivalent antigen; also called pig TWEAKR Fc
The description is as above.
Protocol: as §1

Experiment [6] has as its target T6, TPP-2614 (TweakR-ECD-34-68-hIgGFc-His-D47A) (human).
T6 construct: also called D47A TWEAKR mutein
Kind of experiment: ELISA, IgG coated 1 ug/ml, TWEAKR variant 250 ng/ml, anti-HIS HRP (FIG. 6C).
Protocol: Antibodies were coated (1 μg/ml), TWEAKR variant was added at 250 ng/ml, detection via anti-HIS HRP. […] Antibodies were coated (1 μg/ml), TWEAKR variant was added 250 ng/ml, detection via anti-HIS HRP.

B1: TPP-2090 (antibody, human IgG1, kappa, V domains shown)
VH: EVQLLESGGGLVQPGGSLRLSCAASGFTFSPYPMIWVRQAPGKGLEWVSYISPSGGSTHYADSVKGRFTISRDNSKNTLYLQMNSLRAEDTAVYYCARGGDTYFDYFDYWGQGTLVTVSS
VL: DIQMTQSPSSLSASVGDRVTITCRASQSISGYLNWYQQKPGKAPKLLIYQASSLQSGVPSRFSGSGSGTDFTLTISSLQPEDFATYYCQQSYTSPFITFGQGTKVEIKR
notes: Human IgG1
With B1, the Kd in experiment [1] turned out to be 21.2 nM; in experiment [2], 4.1 nM; in experiment [3], 15 nM; in experiment [4] it was 4.3 nM; in experiment [5], 9.9 nM. Moreover, the “% binding normalized by wt binding signal” value in experiment [6] was below 5%.
